Tests used:
Assay in all cases: SPR, captured hENG-hFc, soluble ligand
hENG(61-346)-hFc = biological target: T1, hENG(61-346)-hFc (human, UniProt P17813 61-346)
T1 construct: not shown: human IgG1 Fc domain
T1 sequence: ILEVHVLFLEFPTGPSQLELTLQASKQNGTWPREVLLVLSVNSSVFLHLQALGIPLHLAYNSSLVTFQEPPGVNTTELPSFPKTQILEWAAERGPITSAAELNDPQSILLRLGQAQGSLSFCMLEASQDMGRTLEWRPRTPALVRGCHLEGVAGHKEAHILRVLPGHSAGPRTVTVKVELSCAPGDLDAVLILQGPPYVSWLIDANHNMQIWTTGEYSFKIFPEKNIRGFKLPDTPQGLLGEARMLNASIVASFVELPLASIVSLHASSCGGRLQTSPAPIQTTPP

hENG(438-586)-hFc = biological target: T2, hENG(438-586)-hFc (human, UniProt P17813 438-586)
T2 construct: not shown: human IgG1 Fc domain
T2 sequence: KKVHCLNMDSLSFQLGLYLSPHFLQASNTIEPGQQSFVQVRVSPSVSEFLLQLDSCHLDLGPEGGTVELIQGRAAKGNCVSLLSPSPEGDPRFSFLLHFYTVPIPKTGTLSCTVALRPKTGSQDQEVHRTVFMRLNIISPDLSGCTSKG

hENG(360-586)-hFc = biological target: T3, hENG(360-586)-hFc (human, UniProt P17813 360-586)
T3 construct: not shown: human IgG1 Fc domain
T3 sequence: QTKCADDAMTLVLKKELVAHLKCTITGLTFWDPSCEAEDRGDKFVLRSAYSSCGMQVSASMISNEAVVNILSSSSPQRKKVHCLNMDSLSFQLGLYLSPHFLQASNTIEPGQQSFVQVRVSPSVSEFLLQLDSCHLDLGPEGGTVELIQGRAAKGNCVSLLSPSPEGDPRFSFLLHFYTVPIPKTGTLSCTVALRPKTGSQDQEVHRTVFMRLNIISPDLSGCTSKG

hENG(26-329)-hFc = biological target: T4, hENG(26-329)-hFc (human, UniProt P17813 26-329)
T4 construct: not shown: human IgG1 Fc domain
T4 sequence: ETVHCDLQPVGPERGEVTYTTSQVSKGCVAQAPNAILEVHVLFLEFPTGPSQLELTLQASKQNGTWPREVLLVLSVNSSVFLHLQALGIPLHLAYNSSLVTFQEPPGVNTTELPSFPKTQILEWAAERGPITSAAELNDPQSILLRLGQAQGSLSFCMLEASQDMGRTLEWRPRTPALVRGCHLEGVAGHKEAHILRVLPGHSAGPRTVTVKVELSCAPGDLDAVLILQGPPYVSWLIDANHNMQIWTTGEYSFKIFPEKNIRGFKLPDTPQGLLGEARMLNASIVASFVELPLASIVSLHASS

hENG(458-586)-hFc = biological target: T5, hENG(458-586)-hFc (human, UniProt P17813 458-586)
T5 construct: Expressed in COS cells, not purified; not shown: human IgG1 Fc domain
T5 sequence: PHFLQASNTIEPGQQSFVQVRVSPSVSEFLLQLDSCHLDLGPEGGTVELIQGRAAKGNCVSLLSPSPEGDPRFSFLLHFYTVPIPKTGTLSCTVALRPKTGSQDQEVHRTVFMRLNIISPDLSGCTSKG

hENG(26-257)-hFc = biological target: T6, hENG(26-257)-hFc (human, UniProt P17813 26-257)
T6 construct: not shown: human IgG1 Fc domain
T6 sequence: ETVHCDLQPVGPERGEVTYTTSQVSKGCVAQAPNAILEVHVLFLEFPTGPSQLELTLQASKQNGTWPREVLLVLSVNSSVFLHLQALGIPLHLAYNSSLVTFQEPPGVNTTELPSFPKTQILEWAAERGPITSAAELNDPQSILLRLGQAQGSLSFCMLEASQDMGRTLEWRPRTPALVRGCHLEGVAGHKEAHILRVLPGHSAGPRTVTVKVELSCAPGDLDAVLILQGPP

hENG(458-581)-hFc = biological target: T7, hENG(458-581)-hFc (human, UniProt P17813 458-581)
T7 construct: Expressed in COS cells, not purified; not shown: human IgG1 Fc domain
T7 sequence: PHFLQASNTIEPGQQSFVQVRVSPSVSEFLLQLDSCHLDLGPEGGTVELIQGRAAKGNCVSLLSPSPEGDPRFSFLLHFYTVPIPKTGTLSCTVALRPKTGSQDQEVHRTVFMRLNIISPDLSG

hENG(26-332)-hFc = biological target: T8, hENG(26-332)-hFc (human, UniProt P17813 26-332)
T8 construct: not shown: human IgG1 Fc domain
T8 sequence: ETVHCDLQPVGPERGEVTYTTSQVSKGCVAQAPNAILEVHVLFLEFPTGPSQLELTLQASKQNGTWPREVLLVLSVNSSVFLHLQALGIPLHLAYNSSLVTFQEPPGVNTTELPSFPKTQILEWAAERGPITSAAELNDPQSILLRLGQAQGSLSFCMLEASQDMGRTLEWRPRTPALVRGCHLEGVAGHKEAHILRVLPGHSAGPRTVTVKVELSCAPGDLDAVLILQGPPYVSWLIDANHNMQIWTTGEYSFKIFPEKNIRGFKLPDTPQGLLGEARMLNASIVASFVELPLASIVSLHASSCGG

hENG(360-581)-hFc = biological target: T9, hENG(360-581)-hFc (human, UniProt P17813 360-581)
T9 construct: not shown: human IgG1 Fc domain
T9 sequence: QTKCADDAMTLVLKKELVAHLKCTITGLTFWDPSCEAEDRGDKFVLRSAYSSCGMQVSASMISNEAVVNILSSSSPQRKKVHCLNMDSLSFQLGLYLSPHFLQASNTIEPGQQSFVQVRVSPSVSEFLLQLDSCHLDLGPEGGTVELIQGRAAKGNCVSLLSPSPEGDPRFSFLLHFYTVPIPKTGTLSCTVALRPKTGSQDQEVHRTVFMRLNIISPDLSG

hENG(129-346)-hFc = biological target: T10, hENG(129-346)-hFc (human, UniProt P17813 129-346)
T10 construct: not shown: human IgG1 Fc domain
T10 sequence: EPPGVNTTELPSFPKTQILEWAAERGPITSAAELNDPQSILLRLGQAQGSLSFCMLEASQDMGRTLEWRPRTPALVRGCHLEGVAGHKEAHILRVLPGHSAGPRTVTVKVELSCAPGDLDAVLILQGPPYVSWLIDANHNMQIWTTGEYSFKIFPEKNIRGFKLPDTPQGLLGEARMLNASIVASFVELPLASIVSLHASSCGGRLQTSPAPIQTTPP

Measured: binding result

B1: human BMP-9 (ligand, UniProt Q9UK05 320-429, looked up)
chain: SAGAGSHCQKTSLRVNFEDIGWDSWIIAPKEYEAYECKGGCFFPLADDVTPTKHAIVQTLVHLKFPTKVGKACCVPTKLSPISVLYKDDMGVPTLKYHYEGMSVAECGCR
notes: also called hBMP-9
no binding (tested: 100 nM): all assays above

B2: human BMP-10 (ligand, UniProt O95393 317-424, looked up)
chain: NAKGNYCKRTPLYIDFKEIGWDSWIIAPPGYEAYECRGVCNYPLAEHLTPTKHAIIQALVHLKNSQKASKACCVPTKLEPISILYLDKGVVTYKFKYEGMAVSECGCR
notes: also called hBMP-10
no binding (tested: 100 nM): all assays above

— patent US20200164029A1 (ACCELERON PHARMA, published 2020)
